Results from patent US20170165339A1 (IMMATICS BIOTECHNOLOGIES, published 2017).

Experiments:
HLA-A*02 = HLA-A*02 (human); experiment: UV peptide-exchange ELISA, yield grade
HLA-A*02:01 = HLA-A*02:01 (human); experiment: pMHC used for negative control stimulation

peptide exchange yield (HLA-A*02) | binding result (HLA-A*02:01) | Binder
50 to 75% | – | ALSVLRLAL [ALSVLRLAL (SEQ ID NO: 251)]
50 to 75% | – | SLAPATPEV [SLAPATPEV (SEQ ID NO: 250)]
50 to 75% | – | ALLPELREV [ALLPELREV (SEQ ID NO: 143)]
50 to 75% | – | ALAPHLDDA [ALAPHLDDA (SEQ ID NO: 237)]
20 to 49% | – | GLYERPTAA [GLYERPTAA (SEQ ID NO: 238)]
50 to 75% | – | FMADDIFSV [FMADDIFSV (SEQ ID NO: 243)]
20 to 49% | – | ALHFSEDEI [ALHFSEDEI (SEQ ID NO: 146)]
≥ 75% | – | FISERVEVV [FISERVEVV (SEQ ID NO: 153)]
50 to 75% | – | MLAGIAITV [MLAGIAITV (SEQ ID NO: 148)]
20 to 49% | – | KTIQQLETV [KTIQQLETV (SEQ ID NO: 241)]
50 to 75% | – | YMGEEKLIASV [YMGEEKLIASV (SEQ ID NO: 240)]
50 to 75% | – | ALLAFFPGL [ALLAFFPGL (SEQ ID NO: 144)]
50 to 75% | – | HLFDAFVSV [HLFDAFVSV (SEQ ID NO: 233)]
50 to 75% | – | QLQDRVYAL [QLQDRVYAL (SEQ ID NO: 261)]
50 to 75% | – | KLFPQETLFL [KLFPQETLFL (SEQ ID NO: 264)]
≥ 75% | – | GLCERLVSL [GLCERLVSL (SEQ ID NO: 249)]
50 to 75% | – | NTCPYVHNI [NTCPYVHNI (SEQ ID NO: 265)]
50 to 75% | – | KIFPAALQLV [KIFPAALQLV (SEQ ID NO: 232)]
– | binds | YLLPAIVHI [DDX5-001]
50 to 75% | – | ILGDLSHLL [ILGDLSHLL (SEQ ID NO: 156)]
50 to 75% | – | TVSDVLNSV [TVSDVLNSV (SEQ ID NO: 246)]
≥ 75% | – | YLDRFLAGV [YLDRFLAGV (SEQ ID NO: 248)]
≥ 75% | – | SLLDLPLSL [SLLDLPLSL (SEQ ID NO: 245)]
50 to 75% | – | LLNPVVEFV [LLNPVVEFV (SEQ ID NO: 155)]
50 to 75% | – | ILLEKILSL [ILLEKILSL (SEQ ID NO: 260)]
50 to 75% | – | SLLHFTENL [SLLHFTENL (SEQ ID NO: 255)]
50 to 75% | – | ILLPRIIEA [ILLPRIIEA (SEQ ID NO: 259)]
50 to 75% | – | MMVGDLLEV [MMVGDLLEV (SEQ ID NO: 152)]

peptide exchange yield (HLA-A*02) | binding result (HLA-A*02:01) | Binder
50 to 75% | – | ALAELIDNSL [ALAELIDNSL (SEQ ID NO: 253)]
20 to 49% | – | SLGEEQFSV [SLGEEQFSV (SEQ ID NO: 256)]
50 to 75% | – | VLYDRPLKI [VLYDRPLKI (SEQ ID NO: 150)]
50 to 75% | – | ILNTHITEL [ILNTHITEL (SEQ ID NO: 149)]
50 to 75% | – | RLLGTEFQV [RLLGTEFQV (SEQ ID NO: 154)]
50 to 75% | – | ALYEGYATV [ALYEGYATV (SEQ ID NO: 247)]
50 to 75% | – | FMVDKAIYL [FMVDKAIYL (SEQ ID NO: 262)]
20 to 49% | – | KLQGKLPEL [KLQGKLPEL (SEQ ID NO: 254)]
50 to 75% | – | MLDKYSHYL [MLDKYSHYL (SEQ ID NO: 231)]
≥ 75% | – | YLMDDTVEI [YLMDDTVEI (SEQ ID NO: 147)]
50 to 75% | – | TLTSLLAQA [TLTSLLAQA (SEQ ID NO: 157)]
20 to 49% | – | KMNESTRSV [KMNESTRSV (SEQ ID NO: 239)]
50 to 75% | – | STIAILNSV [STIAILNSV (SEQ ID NO: 236)]
50 to 75% | – | RLMEICESL [RLMEICESL (SEQ ID NO: 252)]
20 to 49% | – | SVLDSTAKV [SVLDSTAKV (SEQ ID NO: 151)]
50 to 75% | – | YAIGLVMRL [YAIGLVMRL (SEQ ID NO: 266)]
≥ 75% | – | AILAHLNTV [AILAHLNTV (SEQ ID NO: 229)]
20 to 49% | – | VLLSEQGDVKL [VLLSEQGDVKL (SEQ ID NO: 263)]
≥ 75% | – | GLYTDPCGV [GLYTDPCGV (SEQ ID NO: 257)]
50 to 75% | – | YLWATIQRI [YLWATIQRI (SEQ ID NO: 145)]
50 to 75% | – | LLSPHNPAL [LLSPHNPAL (SEQ ID NO: 234)]
50 to 75% | – | ILVEGISTV [ILVEGISTV (SEQ ID NO: 142)]
≥ 75% | – | LLSERFINV [LLSERFINV (SEQ ID NO: 258)]
20 to 49% | – | YLLEKNRVV [YLLEKNRVV (SEQ ID NO: 244)]
20 to 49% | – | KLQNIMMLL [KLQNIMMLL (SEQ ID NO: 230)]
20 to 49% | – | WLYGEDHQI [WLYGEDHQI (SEQ ID NO: 242)]
50 to 75% | – | KIIDFLSAL [KIIDFLSAL (SEQ ID NO: 235)]
